The values that follow come from US20260258125A1.

For test [1], the target named is membrane-bound endogenous human CEACAM5 and CEACAM6 on LS 174T cells. The experiment in a line: flow cytometry on LS174T cells with against without 100 nM soluble CEACAM6. Background: Flow cytometry measures light scatter and fluorescence of single cells or particles in a stream.
Test [2] deals with membrane-bound endogenous human CEACAM5 and CEACAM6 on A549 cells. The experiment in a line: flow cytometry on A549 cells (printed over the panel: CEACAM5-, CEACAM6+), MFI.
In test [3] the target is membrane-bound endogenous human CEACAM5 and CEACAM6 on BxPC3 cells. The experiment in a line: flow cytometry on BxPC3 cells with against without 100 nM soluble CEACAM6.

B1: PR303563 (Tinurilimab) (antibody, human IgG2, kappa, V domains shown)
VH: QVTLRESGPALVKPTQTLTLTCTFSGFSLSTYGIGVGWIRQPPGKALEWLAHIWWNDNKYYSTSLKTRLTISKDTSKNQVVLTMTNMDPVDTATYYCARISLPYFDYWGQGTTLTVSS
VL: DIQLTQSPSFLSASVGDRVTITCKASQNVGTAVAWYQQKPGKAPKLLIYSASNRYTGVPSRFSGSGSGTEFTLTISSLQPEDFATYYCQQYSSYPLTFGGGTKVEIKR
For orientation: EC50 (read off the curve) means the concentration that produces a half-maximal response. For the molecule B1, the values for the fold change of EC50 at the presence of 100 nM soluble protein in test [1] and in test [3] were 6.9 fold and 4.1 fold, respectively. Moreover, the EC50 (read off the curve) in test [2] is 100 pM.
